The Human Domainome abundance scans (Beltran et al. 2025)
± gives the uncertainty stated by the source.

B1: Chromodomain-helicase-DNA-binding protein 4, residues 365 to 417; numbered along this chain, Q14839 (parent)
chain: YETDHQDYCEVCQQGGEIILCDTCPRAYHMVCLDPDMEKAPEGKWSCPHCEKE
B2: Calcium-binding protein 2, residues 155 to 219; numbered along this chain, Q9NPB3 (parent)
chain: RELRDAFREFDTNGDGRISVGELRAALKALLGERLSQREVDEILQDVDLNGDGLVDFEEFVRMMS

Variants of: B1
Assay: abundance fitness (aPCA) (normalised: wild type 0, dead -1); higher = more abundant; growth selection in yeast, the domain comes from the species named
Conditions: Homo sapiens

In order of rising abundance fitness:
1. C50M  -0.819 ± 0.22
2. C50Q  -0.767 ± 0.24
3. E53T  -0.717 ± 0.41
4. C50Y  -0.679 ± 0.15
5. C50T  -0.624 ± 0.2
6. C50W  -0.619 ± 0.12
7. K52I  -0.586 ± 0.21
8. E53N  -0.57 ± 0.38
9. C50F  -0.567 ± 0.19
10. C50R  -0.555 ± 0.098
11. E53D  -0.551 ± 0.45
12. C50I  -0.526 ± 0.28
13. C50L  -0.517 ± 0.14
14. E51F  -0.392 ± 0.2
15. K52D  -0.39 ± 0.23
16. E53H  -0.378 ± 0.33
17. K52M  -0.376 ± 0.23
18. E51Q  -0.371 ± 0.2
19. C50E  -0.366 ± 0.15
20. E51N  -0.357 ± 0.48
21. E53V  -0.356 ± 0.19
22. K52W  -0.346 ± 0.14
23. C50K  -0.344 ± 0.17
24. E51W  -0.338 ± 0.11
25. E53I  -0.335 ± 0.39
26. E51I  -0.331 ± 0.22
27. E53Y  -0.323 ± 0.39
28. C50N  -0.313 ± 0.29
29. E51L  -0.275 ± 0.11
30. C50A  -0.271 ± 0.13
31. E53C  -0.263 ± 0.25
32. E53G  -0.252 ± 0.13
33. K52A  -0.233 ± 0.12
34. E51C  -0.227 ± 0.13
35. C50S  -0.222 ± 0.11
36. E51Y  -0.221 ± 0.23
37. E53A  -0.207 ± 0.16
38. K52G  -0.204 ± 0.12
39. H49S  -0.202 ± 0.11
40. H49V  -0.185 ± 0.099
41. K52V  -0.176 ± 0.099
42. H49W  -0.175 ± 0.15
43. E51T  -0.174 ± 0.15
44. C50D  -0.17 ± 0.16
45. H49Y  -0.169 ± 0.18
46. H49T  -0.16 ± 0.14
47. H49Q  -0.141 ± 0.2
48. K52Q  -0.134 ± 0.18
49. E53L  -0.133 ± 0.32
50. E51S  -0.127 ± 0.11
51. E51D  -0.111 ± 0.28
52. K52R  -0.106 ± 0.11
53. K52C  -0.105 ± 0.16
54. K52L  -0.088 ± 0.11
55. K52P  -0.072 ± 0.16
56. H49R  -0.044 ± 0.12
57. H49P  -0.041 ± 0.12
58. E53R  -0.04 ± 0.15
59. E51M  -0.03 ± 0.15
60. E53S  -0.023 ± 0.16
61. E51P  -0.007 ± 0.12
62. K52N  -0.007 ± 0.21
63. K52T  0.06 ± 0.16
64. E53W  0.113 ± 0.22
65. E51G  0.132 ± 0.091
66. K52E  0.136 ± 0.16
67. K52S  0.161 ± 0.14
68. K52H  0.286 ± 0.23

Variants of: B2
Assay: as above
Conditions: Homo sapiens

In order of falling abundance fitness:
1. EELRDAFREFDTNGDGRISVGELRAALKALLGERLSQREVDEILQDVDLNGDGLVDFEEFVRMMS [R1E]  0.423 ± 0.36
2. MELRDAFREFDTNGDGRISVGELRAALKALLGERLSQREVDEILQDVDLNGDGLVDFEEFVRMMS [R1M]  0.206 ± 0.21
3. KELRDAFREFDTNGDGRISVGELRAALKALLGERLSQREVDEILQDVDLNGDGLVDFEEFVRMMS [R1K]  0.12 ± 0.37
4. NELRDAFREFDTNGDGRISVGELRAALKALLGERLSQREVDEILQDVDLNGDGLVDFEEFVRMMS [R1N]  0.078 ± 0.084
5. TELRDAFREFDTNGDGRISVGELRAALKALLGERLSQREVDEILQDVDLNGDGLVDFEEFVRMMS [R1T]  -0.007 ± 0.19
6. SELRDAFREFDTNGDGRISVGELRAALKALLGERLSQREVDEILQDVDLNGDGLVDFEEFVRMMS [R1S]  -0.113 ± 0.1
7. AELRDAFREFDTNGDGRISVGELRAALKALLGERLSQREVDEILQDVDLNGDGLVDFEEFVRMMS [R1A]  -0.114 ± 0.33
8. GELRDAFREFDTNGDGRISVGELRAALKALLGERLSQREVDEILQDVDLNGDGLVDFEEFVRMMS [R1G]  -0.204 ± 0.11
9. CELRDAFREFDTNGDGRISVGELRAALKALLGERLSQREVDEILQDVDLNGDGLVDFEEFVRMMS [R1C]  -0.26 ± 0.16
